Measurements from publication PMC3361975.

System: NC(=O)c1ccc[n+]([C@@H]2O[C@H](COP(=O)(O)OP(=O)(O)OC[C@H]3O[C@@H](n4cnc5c(N)ncnc54)[C@H](O)[C@@H]3O)[C@@H](O)[C@H]2O)c1
Experiment: purified protein
Details: phosphite and NAD+ varied, 100 mM MOPS pH 7.25, 25 °C

Substance | Km
17X-PTDH (Stutzerimonas stutzeri; A319E/A325V/C336D/D13E/E130K/E175A/E332N/I150F/I313L/L276Q/M26I/Q132R/Q137R/Q215L/R275Q/R301A/V315A/V71I) | 0.216 (0.015) mM
17X-PTDH (Stutzerimonas stutzeri; A319E/A325V/C336D/D13E/E130K/E175A/E332N/I150F/I313L/L276Q/M26I/Q132R/Q137R/Q215L/R275Q/V315A/V71I) | 0.022 (0.006) mM
17X-PTDH (Stutzerimonas stutzeri; A319E/A325V/C336D/D13E/E130K/E175A/E332N/I150F/I313L/L276Q/M26I/Q132R/Q137R/Q215L/R275Q/R301K/V315A/V71I) | 0.074 (0.007) mM
